Results from patent US6465220.

Assays:
[1] = test system: GalNAc4TAP24 glycopeptide

Chain of soluble human GalNAc-T4 (pAcGP67-GalNAc-T4506Vsol), amino acid residues 32-578 (chain, as listed by the source): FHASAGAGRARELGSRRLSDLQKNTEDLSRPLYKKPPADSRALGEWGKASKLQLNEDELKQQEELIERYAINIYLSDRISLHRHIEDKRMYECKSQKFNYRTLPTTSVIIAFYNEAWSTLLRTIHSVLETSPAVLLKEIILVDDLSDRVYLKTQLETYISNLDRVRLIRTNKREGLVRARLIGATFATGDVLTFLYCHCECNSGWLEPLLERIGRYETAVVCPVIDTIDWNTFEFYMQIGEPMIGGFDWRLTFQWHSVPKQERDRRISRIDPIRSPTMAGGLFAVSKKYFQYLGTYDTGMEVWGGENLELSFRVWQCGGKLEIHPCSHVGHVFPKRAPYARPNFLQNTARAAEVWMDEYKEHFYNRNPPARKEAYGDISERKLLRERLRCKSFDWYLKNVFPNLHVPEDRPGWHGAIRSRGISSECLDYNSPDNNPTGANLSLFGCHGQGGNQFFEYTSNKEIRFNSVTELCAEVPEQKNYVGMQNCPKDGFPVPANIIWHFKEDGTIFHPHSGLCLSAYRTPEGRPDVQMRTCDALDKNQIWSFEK
Chain of soluble recombinant human GalNAc-T2 (pAcGP67-GalNAc-T2-sol) (chain, as listed by the source): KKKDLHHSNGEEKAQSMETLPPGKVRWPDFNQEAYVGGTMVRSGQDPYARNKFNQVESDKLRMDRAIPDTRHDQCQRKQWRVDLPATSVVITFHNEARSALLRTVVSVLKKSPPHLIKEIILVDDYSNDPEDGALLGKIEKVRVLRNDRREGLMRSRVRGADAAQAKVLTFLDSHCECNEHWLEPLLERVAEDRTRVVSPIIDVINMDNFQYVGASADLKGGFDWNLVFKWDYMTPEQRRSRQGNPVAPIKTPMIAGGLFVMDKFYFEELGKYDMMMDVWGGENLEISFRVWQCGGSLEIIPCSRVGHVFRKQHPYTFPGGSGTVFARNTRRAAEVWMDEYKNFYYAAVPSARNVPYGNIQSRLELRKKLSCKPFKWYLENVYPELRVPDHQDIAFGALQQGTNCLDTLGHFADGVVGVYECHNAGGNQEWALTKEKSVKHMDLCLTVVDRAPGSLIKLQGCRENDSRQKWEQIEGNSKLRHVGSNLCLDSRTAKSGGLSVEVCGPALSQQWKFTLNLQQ
Chain of PSGL-1b peptide (chain, as listed by the source): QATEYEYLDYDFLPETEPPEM
Chain of hCG-β peptide (chain, as listed by the source): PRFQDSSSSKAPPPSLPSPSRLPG
Chain of full coding human GalNAc-T4 (pVL-GalNAc-T4506Vfull) expressed in Sf9 cells (chain, as listed by the source): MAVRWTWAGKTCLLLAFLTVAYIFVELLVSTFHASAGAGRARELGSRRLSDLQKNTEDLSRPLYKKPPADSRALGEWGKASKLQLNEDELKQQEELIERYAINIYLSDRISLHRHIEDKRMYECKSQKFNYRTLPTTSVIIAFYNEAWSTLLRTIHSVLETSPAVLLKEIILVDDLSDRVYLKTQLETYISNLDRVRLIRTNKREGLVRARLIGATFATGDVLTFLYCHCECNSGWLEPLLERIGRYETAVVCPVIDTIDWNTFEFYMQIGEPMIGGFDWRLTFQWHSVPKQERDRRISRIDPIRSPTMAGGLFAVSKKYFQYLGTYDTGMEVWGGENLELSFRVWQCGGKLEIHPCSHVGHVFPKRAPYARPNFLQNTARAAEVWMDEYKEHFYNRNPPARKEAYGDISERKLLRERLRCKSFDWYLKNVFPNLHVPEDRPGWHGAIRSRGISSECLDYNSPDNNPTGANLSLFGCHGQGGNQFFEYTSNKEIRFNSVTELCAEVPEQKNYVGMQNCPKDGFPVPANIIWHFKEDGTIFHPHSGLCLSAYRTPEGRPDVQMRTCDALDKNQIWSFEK

Row | Substance | GalNAc-transferase activity at 0.06 mM peptide (milliunits/mg) (EA2 peptide) | GalNAc-transferase activity at 0.25 mM peptide (milliunits/mg) (EA2 peptide) | Km for acceptor substrate (EA2 peptide) | Vmax (EA2 peptide) | GalNAc-transferase activity at 0.06 mM peptide (milliunits/mg) (PSGL-1b peptide) | GalNAc-transferase activity at 0.25 mM peptide (milliunits/mg) (PSGL-1b peptide) | Km for acceptor substrate (PSGL-1b peptide) | GalNAc-transferase activity at 0.06 mM peptide (milliunits/mg) (TAP24 peptide) | GalNAc-transferase activity at 0.25 mM peptide (milliunits/mg) (TAP24 peptide) | GalNAc-transferase activity at 0.06 mM peptide (milliunits/mg) (Muc2 peptide) | GalNAc-transferase activity at 0.25 mM peptide (milliunits/mg) (Muc2 peptide) | GalNAc-transferase activity at 0.25 mM peptide (milliunits/mg) (Muc1a′ peptide) | GalNAc-transferase activity at 1 mM peptide (milliunits/mg) (Muc1a′ peptide) | GalNAc-transferase activity at 0.06 mM peptide (milliunits/mg) (Muc7 peptide) | GalNAc-transferase activity at 0.25 mM peptide (milliunits/mg) (Muc7 peptide) | Km for acceptor substrate (Muc7 peptide) | Vmax (Muc7 peptide) | GalNAc-transferase activity at 0.25 mM peptide (milliunits/mg) (Muc1b′ peptide) | GalNAc-transferase activity at 1 mM peptide (milliunits/mg) (Muc1b′ peptide) | GalNAc-transferase activity at 0.06 mM peptide (milliunits/mg) [1] | also measured
1 | full coding human GalNAc-T4 (pVL-GalNAc-T4506Vfull) expressed in Sf9 cells | – | – | – | – | – | – | – | – | – | – | – | – | – | – | – | – | – | – | – | – | GalNAc incorporation by MALDI-TOF of HPLC-purified product [1]: no incorporation was detected
2 | soluble human GalNAc-T4 (pAcGP67-GalNAc-T4506Vsol), amino acid residues 32-578 | 15 | 42 | 2190 µM | 0.44 nmol/min/µg | 1.2 | 1.4 | 20 µM | 0.8 | 2.7 | 9 | 29 | 2 | 6.7 | 21 | 53 | 480 µM | 0.25 nmol/min/µg | 0.7 | 0.9 | 4.4 | Vmax (PSGL-1b peptide): 0.003 nmol/min/µg; GalNAc-transferase activity at 0.25 mM peptide (milliunits/mg) [1]: 7.1; Km for acceptor substrate [1]: 90 µM; Vmax [1]: 0.007 nmol/min/µg
3 | soluble recombinant human GalNAc-T2 (pAcGP67-GalNAc-T2-sol) | 152 | 376 | 850 µM | 1.8 nmol/min/µg | 0.3 | 0.3 | > 2000 µM | 73 | 222 | 169 | 128 | 28 | 83 | 737 | 396 | 15 µM | 0.64 nmol/min/µg | 198 | 582 | 0 | GalNAc-transferase activity (PSGL-1b peptide): exhibited poor activities with both peptide designs; GalNAc-transferase activity (PSGL-1a peptide): exhibited poor activities with both peptide designs; GalNAc-transferase activity at 0.06 mM peptide (milliunits/mg) (PSGL-1a peptide): 0; GalNAc-transferase activity at 0.25 mM peptide (milliunits/mg) (PSGL-1a peptide): 0; GalNAc-transferase activity at 0.06 mM peptide (milliunits/mg) (hCG-β peptide): 22; GalNAc-transferase activity at 0.25 mM peptide (milliunits/mg) (hCG-β peptide): 74; GalNAc-transferase activity at 0.25 mM peptide (milliunits/mg) [1]: 0
